Data as given in article PMC12809078, “CtBP1/2 oligomerization promotes G9a-Mediated transcriptional repression” (The Journal of Biological Chemistry, 2025).

T1: His6-MBP-G9a^641-1193 (WT) (human, UniProt Q96KQ7 641-1193)
T1 construct: G9a (EHMT2), human, residues 641-1193 (ANK, Pre-SET and SET domains); also called WT G9a; source: E. coli, purified
T1 sequence (looked up): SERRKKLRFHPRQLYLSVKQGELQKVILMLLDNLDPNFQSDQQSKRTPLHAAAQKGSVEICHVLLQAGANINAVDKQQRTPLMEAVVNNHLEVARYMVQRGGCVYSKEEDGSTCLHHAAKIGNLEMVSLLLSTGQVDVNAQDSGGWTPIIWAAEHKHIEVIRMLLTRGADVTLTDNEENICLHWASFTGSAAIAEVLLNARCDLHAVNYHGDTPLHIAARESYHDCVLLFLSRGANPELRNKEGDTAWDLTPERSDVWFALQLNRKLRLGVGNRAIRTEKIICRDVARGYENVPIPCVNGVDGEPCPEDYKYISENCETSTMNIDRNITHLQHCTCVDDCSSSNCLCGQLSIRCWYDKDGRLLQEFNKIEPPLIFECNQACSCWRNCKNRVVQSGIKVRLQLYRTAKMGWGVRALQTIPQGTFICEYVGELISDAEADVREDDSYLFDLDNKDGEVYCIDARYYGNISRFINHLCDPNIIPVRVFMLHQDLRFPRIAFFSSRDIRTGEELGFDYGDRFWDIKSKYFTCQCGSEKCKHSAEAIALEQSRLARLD

B1: full-length SUMO-CtBP2 (natural protein)
chain: not shown
notes: Named SUMO-CtBP2 in the pull-downs; also called SUMO-CtBP2-FL; CtBP2-FL; source: E. coli Rosetta 2 (DE3), purified (Ni-NTA); not shown: SUMO, N-terminal, kept

Legend:
Details in all cases: both partners purified
[1] = target: T1, His6-MBP-G9a^641-1193 (WT); experiment: pull-down; MBP pull-down of His6-MBP-G9a(641-1193) WT or Δ885–893 with full-length CtBP2; same procedure as the FLAG pull-down with the respective affinity resin
full-length SUMO-CtBP2 = target: B1; experiment: pull-down; FLAG-tagged G9a (or GLP) fragments immobilised on anti-FLAG resin, incubated with CtBP protein 2 h at 4 °C; 50 mM Tris-HCl pH 8.0, 150 mM NaCl, 2 mM DTT, 0.1% NP-40; eluted with FLAG peptide, SDS-PAGE
CtBP2 (residues 31–364) = target: T2, CtBP2 (residues 31–364) (human, UniProt P56545 31-364); experiment: as above
T2 construct: Tag-free by the methods; source: E. coli Rosetta 2 (DE3), purified (Ni-NTA, SUMO protease, SEC; ion exchange and gel filtration for crystals); not shown: His6, N-terminal, cleaved; SUMO, N-terminal, cleaved

full-length SUMO-CtBP1 = full-length SUMO-CtBP1 (human, UniProt Q13363 1-440); experiment: as above

Row | binding result [1] | binding result (full-length SUMO-CtBP2) | binding result (CtBP2 (residues 31–364)) | binding result (full-length SUMO-CtBP1) | Binder
1 | binds | – | – | – | B1
2 | – | binds | – | – | NKEGDTAWDLRPERSDVWFALQLNRKLRLGVGN (domain or fragment, human, UniProt Q96KQ7 881-913, looked up, source: E. coli Rosetta 2 (DE3), purified; not shown: SUMO, N-terminal, kept; FLAG, C-terminal, kept) [SUMO-G9a^881–913-FLAG T891R]
3 | – | binds | – | – | SUMO-G9a^881–1210-FLAG (domain or fragment, human, UniProt Q96KQ7 881-1210, looked up, G9a (EHMT2), human, residues 881-1210; also called CD; G9a C-terminal catalytic domain; not shown: SUMO, N-terminal, kept; FLAG, C-terminal, kept) NKEGDTAWDLTPERSDVWFALQLNRKLRLGVGNRAIRTEKIICRDVARGYENVPIPCVNGVDGEPCPEDYKYISENCETSTMNIDRNITHLQHCTCVDDCSSSNCLCGQLSIRCWYDKDGRLLQEFNKIEPPLIFECNQACSCWRNCKNRVVQSGIKVRLQLYRTAKMGWGVRALQTIPQGTFICEYVGELISDAEADVREDDSYLFDLDNKDGEVYCIDARYYGNISRFINHLCDPNIIPVRVFMLHQDLRFPRIAFFSSRDIRTGEELGFDYGDRFWDIKSKYFTCQCGSEKCKHSAEAIALEQSRLARLDPHPELLPELGSLPPVNT
4 | – | binds | binds | binds | NKEGDTAWDLTPERSDVWFALQLNRKLRLGVGN (domain or fragment, human, UniProt Q96KQ7 881-913, looked up, also called Pre-SET fragment; G9a Pre-SET domain; not shown: SUMO, N-terminal, kept; FLAG, C-terminal, kept) [SUMO-G9a (881–913)-FLAG]
5 | – | binds | – | – | NKEGDTAWDLTEERSDVWFALQLNRKLRLGVGN (domain or fragment, human, UniProt Q96KQ7 881-913, looked up, source: E. coli Rosetta 2 (DE3), purified; not shown: SUMO, N-terminal, kept; FLAG, C-terminal, kept) [SUMO-G9a^881–913-FLAG P892E]
